Substitutions are numbered along the chain they refer to. Read-outs that look alike come from different tables or passages of the source.

Consider 5 molecules from US20220204609A1 (SHANDONG BOAN BIOTECHNOLOGY, published 2022).

Test [1] concerns the target T1, Claudin18.2 on cells (human, UniProt P56856-2 1-261).
T1 construct: whole, on cells; the cell line of each result is named under assay or readout
In words: flow cytometry on NUGC4 cells, antibody at 1.5 µg/mL. Background: Flow cytometry measures light scatter and fluorescence of single cells or particles in a stream.
Procedure: (§1) Each candidate antibody was serially diluted with FACS buffer (sterile PBS, 0.2% BSA), and added to the 96-well round-bottom plate at 50 μL/well before an incubation at 4° C. for 1 h. The supernatant was discarded after centrifugation at 2000 rpm for 3 min.

For test [2], the target named is T1, Claudin18.2 on cells. In words: flow cytometry on NUGC4 cells, antibody at 3 µg/mL.
Procedure: as §1
In test [3] the target is T1, Claudin18.2 on cells. In words: flow cytometry on NUGC4 cells, antibody at 0.75 µg/mL.
Procedure: as §1
Test [4] concerns the target T1, Claudin18.2 on cells. Briefly: cell-based or functional assay.
For test [5], the target named is T1, Claudin18.2 on cells. In words: flow cytometry on 293T-Claudin18.2 cells, antibody at 1.5 µg/mL.
Procedure: as §1
In test [6] the target is T1, Claudin18.2 on cells. In words: flow cytometry on NUGC4 cells, antibody at 3 µg/mL. The source holds these as a separate data set.
Procedure: as §1
Test [7] addresses T1, Claudin18.2 on cells. In words: flow cytometry on NUGC4 cells, antibody at 0.75 µg/mL. This is another data set of the same source.
Procedure: as §1
The target of test [8] is T1, Claudin18.2 on cells. Briefly: flow cytometry on 293T-Claudin18.2 cells, antibody at 0.375 µg/mL.
Procedure: as §1
For test [9], the target named is T1, Claudin18.2 on cells. Briefly: cell-based or functional assay. This is another data set of the same source.
Test [10] deals with T1, Claudin18.2 on cells. Briefly: flow cytometry on 293T-Claudin18.2 cells, antibody at 1.5 µg/mL. This is another data set of the same source.
Procedure: as §1
The target of test [11] is T1, Claudin18.2 on cells. Briefly: cell-based or functional assay. This is another data set of the same source.
Test [12] addresses T1, Claudin18.2 on cells. Briefly: flow cytometry on 293T-Claudin18.2 cells, antibody at 0.75 µg/mL.
Procedure: as §1
The target of test [13] is T1, Claudin18.2 on cells. Briefly: flow cytometry on NUGC4 cells, antibody at 1.5 µg/mL. The source holds these as a separate data set.
Procedure: as §1
The target in test [14] is T1, Claudin18.2 on cells. Briefly: cell-based or functional assay. This is another data set of the same source.
Test [15] concerns the target T1, Claudin18.2 on cells. Briefly: flow cytometry on 293T-Claudin18.2 cells, antibody at 3 µg/mL.
Procedure: as §1
Test [16] addresses T1, Claudin18.2 on cells. Briefly: flow cytometry on 293T-Claudin18.2 cells, antibody at 0.375 µg/mL. The source holds these as a separate data set.
Procedure: as §1
Test [17] has as its target T1, Claudin18.2 on cells. In words: flow cytometry on 293T-Claudin18.2 cells, antibody at 0.75 µg/mL. The source holds these as a separate data set.
Procedure: as §1
The target in test [18] is T2, Claudin18.1 on cells (human, UniProt P56856 1-261).
T2 construct: whole, on cells
In words: flow cytometry on 293T-Claudin18.1 cells, antibody at 3 µg/mL.
Procedure: as §1

Test [19] addresses T2, Claudin18.1 on cells. In words: flow cytometry on 293T-Claudin18.1 cells, antibody at 0.75 µg/mL.
Procedure: as §1
For test [20], the target named is T2, Claudin18.1 on cells. Briefly: flow cytometry on 293T-Claudin18.1 cells, antibody at 0.375 µg/mL.
Procedure: as §1
Test [21] concerns the target T2, Claudin18.1 on cells. In words: flow cytometry on 293T-Claudin18.1 cells, antibody at 1.5 µg/mL.
Procedure: as §1

B1: IMAB362 (antibody, human IgG1, kappa, V domains shown)
VH: QVQLQQPGAELVRPGASVKLSCKASGYTFTSYWINWVKQRPGQGLEWIGNIYPSDSYTNYNQKFKDKATLTVDKSSSTAYMQLSSPTSEDSAVYYCTRSWRGNSFDYWGQGTTLTVSS
VL: DIVMTQSPSSLTVTAGEKVTMSCKSSQSLLNSGNQKNYLTWYQQKPGQPPKLLIYWASTRESGVPDRFTGSGSGTDFTLTISSVQAEDLAVYYCQNDYSYPFTFGSGTKLEIKR
On to B1, for which the mean fluorescence intensity was found to be 97100 in the test with Claudin18.2 on cells [1]; 131000 with Claudin18.2 on cells [2]; 69600 with Claudin18.2 on cells [3]; 878000 with Claudin18.2 on cells [5]; 117000 in the test with Claudin18.2 on cells [6]; 55400 with Claudin18.2 on cells [7]. The mean fluorescence intensity is 498000 with Claudin18.2 on cells [8]; 849000 in the test with Claudin18.2 on cells [10]; 650000 with Claudin18.2 on cells [12]; 93500 in the test with Claudin18.2 on cells [13]; 902000 in the test with Claudin18.2 on cells [15]; 407000 with Claudin18.2 on cells [16]. The molecule further yielded a mean fluorescence intensity with Claudin18.2 on cells [17] of 689000. Moreover, the “ADCC inhibition rate, %, antibody 0.1 µg/mL, 293T-Claudin18.2 target cells, PBMC effectors, LDH” value with Claudin18.2 on cells [4] is 20.8%. In addition, in the test with Claudin18.2 on cells [4], the “ADCC inhibition rate, %, antibody 1 µg/mL, 293T-Claudin18.2 target cells, PBMC effectors, LDH” value (from here on “ADCC inhibition rate, %, antibody 1 µg/mL … LDH”) stood at 41.4%. The “ADCC inhibition rate, %, antibody 10 µg/mL, 293T-Claudin18.2 target cells, PBMC effectors, LDH” value (from here on “ADCC inhibition rate, %, antibody 10 µg/mL … LDH”) with Claudin18.2 on cells [4] is 60.6%. The “ADCC inhibition rate, %, antibody 0.5 µg/mL, 293T-Claudin18.2 target cells, PBMC effectors, LDH” value with Claudin18.2 on cells [9] is 18%. Moreover, the “ADCC inhibition rate, %, antibody 5 µg/mL, 293T-Claudin18.2 target cells, PBMC effectors, LDH” value with Claudin18.2 on cells [9] was found to be 45%. The “ADCC inhibition rate, %, antibody 50 µg/mL, 293T-Claudin18.2 target cells, PBMC effectors, LDH” value in the test with Claudin18.2 on cells [9] worked out at 49%. The “ADCC EC50 (µg/mL), NUGC4 target cells, Jurkat reporter effector cells, Bio-Glo” value (shortened to “ADCC EC50 (µg/mL), NUGC4 target cells”) was determined as 2.15 µg/mL in the test with Claudin18.2 on cells [11] and 2.56 µg/mL with Claudin18.2 on cells [14].

B2: CLD389-CA802-IgG1 (antibody, V domains shown)
VH: QVQLVESGGGVVQPGRSLRLSCAASGFTFSSYAMHWVRQVPGKGLEWVAIISYDGSIKYYADSVKGQFTISRDNSKNTLSLQMNSLRPEDTAVYYCARDPTMVRGVRGMDVWGQGTTVTVSS
VL: DIQMTQSPSSLSASVGDRVTITCRASQGIRNDLGWYQQKPGKAPKLLIYAASSLQSGVPSRFSGSGSGTDFTLTISSLQPEDFATYYCLQDYNYPLTFGGGTKLEIKR
notes: Complete IgG1 made in HEK293 cells
As for B2, the mean fluorescence intensity amounted to 58100 with Claudin18.2 on cells [1]; 113000 in the test with Claudin18.2 on cells [2]; 24400 with Claudin18.2 on cells [3]; 194000 with Claudin18.1 on cells [18]; 495000 in the test with Claudin18.2 on cells [8]; 141000 in the test with Claudin18.1 on cells [19]. In addition, the mean fluorescence intensity was found to be 96700 with Claudin18.1 on cells [20]; 1.05e+06 in the test with Claudin18.2 on cells [10]; 1.23e+06 with Claudin18.2 on cells [15]; 774000 with Claudin18.2 on cells [17]; 163000 with Claudin18.1 on cells [21]. For the same molecule, the “ADCC inhibition rate, %, antibody 0.1 µg/mL, 293T-Claudin18.2 target cells, PBMC effectors, LDH” value in the test with Claudin18.2 on cells [4] came out at 25.6%. Also, the “ADCC inhibition rate, %, antibody 1 µg/mL … LDH” value with Claudin18.2 on cells [4] was found to be 61.4%. Further, in the test with Claudin18.2 on cells [4], the “ADCC inhibition rate, %, antibody 10 µg/mL … LDH” value amounted to 61.2%. For the same molecule, the “ADCC EC50 (µg/mL), NUGC4 target cells” value with Claudin18.2 on cells [14] turned out to be 15.7 µg/mL.

B3: CLD389-CA852-IgG1 (antibody, V domains shown)
VH: B2 VH with V40A, I50V, I57K, Q67R, S80Y, P88A
VL: B2 VL with D1E, Q3V, S10T, V15I, L104V
notes: as for B2
As to B3, the “ADCC inhibition rate, %, antibody 0.1 µg/mL, 293T-Claudin18.2 target cells, PBMC effectors, LDH” value with Claudin18.2 on cells [4] was -0.212%. Moreover, the “ADCC inhibition rate, %, antibody 1 µg/mL … LDH” value in the test with Claudin18.2 on cells [4] came to 12.3%. Also, the “ADCC inhibition rate, %, antibody 10 µg/mL … LDH” value in the test with Claudin18.2 on cells [4] was determined as 39.9%. For the same molecule, the mean fluorescence intensity turned out to be 18400 in the test with Claudin18.2 on cells [6]; 9230 with Claudin18.2 on cells [7]; 196000 with Claudin18.2 on cells [8]; 578000 with Claudin18.2 on cells [10]; 12000 with Claudin18.2 on cells [13]; 742000 with Claudin18.2 on cells [15]. Besides, the mean fluorescence intensity in the test with Claudin18.2 on cells [17] came out at 365000.

B4: CLD389-279-IgG1 (antibody, V domains shown)
VH: EVQLVQSGGGVVQPGRSLRLSCAASGFTFSNYAMHWVRQAPGKGLEWVAVISYDGSNKYYADSVKGRFTISRDNSKNTLYLQMNSLRAEDTAVYYCARELRFFDWLLGRAFDIWGQGTMVTVSS
VL: B2 VL with D1E, Q3V, S9P, L96W, G100Q
notes: Complete IgG1 made in HEK293 cells; also called C279; CLD389-C279
As for B4, the mean fluorescence intensity with Claudin18.2 on cells [1] is 78300; with Claudin18.2 on cells [2], 158000; with Claudin18.2 on cells [3] it was 40000; with Claudin18.2 on cells [8], 488000; in the test with Claudin18.2 on cells [10], 1.06e+06; with Claudin18.2 on cells [15], 1.24e+06. Besides, the mean fluorescence intensity with Claudin18.2 on cells [17] was found to be 776000. The “ADCC inhibition rate, %, antibody 0.1 µg/mL, 293T-Claudin18.2 target cells, PBMC effectors, LDH” value in the test with Claudin18.2 on cells [4] stood at 7.53%. In the test with Claudin18.2 on cells [4], the “ADCC inhibition rate, %, antibody 1 µg/mL … LDH” value stood at 16.1%. In addition, the “ADCC inhibition rate, %, antibody 10 µg/mL … LDH” value with Claudin18.2 on cells [4] is 41%. Moreover, the “ADCC EC50 (µg/mL), NUGC4 target cells” value in the test with Claudin18.2 on cells [14] worked out at 0.81 µg/mL.

B5: CLDQ1-CA841-IgG1 (antibody, V domains shown)
VH: QVQLVQSGAEVKKPGSSVKVSCKASGGTFSSYAISWVRQAPGQGLEWMGRIIPILGIANYAQKFQGRVTVTADKSTSTAYMELSSLRSEDTAVYYCARERDNWDPYYYYYGMDVWGQGTTVTVSS
VL: DIQMTQSPSTLSASVGDRVTITCRASQSINSWLAWYQQKPGKAPKLLIYKASSLESGVPSRFSGSGSGTEFTLTISSLQPDDFATYYCQQYNSFPLTFGGGTKVEIKR
notes: as for B2
Turning to B5, the mean fluorescence intensity came to 13200 with Claudin18.2 on cells [1]; 32400 with Claudin18.2 on cells [2]; 11100 with Claudin18.2 on cells [3]; 11000 with Claudin18.1 on cells [18]; 308000 in the test with Claudin18.2 on cells [8]; 18100 with Claudin18.1 on cells [19]. The mean fluorescence intensity amounted to 21500 in the test with Claudin18.1 on cells [20]; 855000 with Claudin18.2 on cells [10]; 1.09e+06 in the test with Claudin18.2 on cells [15]; 583000 with Claudin18.2 on cells [17]; 37900 in the test with Claudin18.1 on cells [21]. The “ADCC inhibition rate, %, antibody 0.1 µg/mL, 293T-Claudin18.2 target cells, PBMC effectors, LDH” value with Claudin18.2 on cells [4] worked out at 15.6%. Further, in the test with Claudin18.2 on cells [4], the “ADCC inhibition rate, %, antibody 1 µg/mL … LDH” value is 27.2%. Also, the “ADCC inhibition rate, %, antibody 10 µg/mL … LDH” value in the test with Claudin18.2 on cells [4] worked out at 58.5%. Moreover, the “ADCC EC50 (µg/mL), NUGC4 target cells” value with Claudin18.2 on cells [11] is 17.3 µg/mL.
